The values below come from US20170106012A1.

The target in the assay is T1, Bone morphogenetic protein 2 (BMP-2), recombinant human (Homo sapiens) (UniProt P12643).
T1 sequence: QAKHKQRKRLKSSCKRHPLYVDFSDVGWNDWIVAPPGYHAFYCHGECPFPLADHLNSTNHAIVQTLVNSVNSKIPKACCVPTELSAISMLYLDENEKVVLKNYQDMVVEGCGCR
Put plainly: cell-based or functional assay.

B1: noggin (protein, UniProt Q13253 28-232, looked up, species assumed)
Noggin: QHYLHIRPAPSDNLPLVDLIEHPDPIFDPKEKDLNETLLRSLLGGHYDPGFMATSPPEDRPGGGGGAAGGAEDLAELDQLLRQRPSGAMPSEIKGLEFSEGLAQGKKQRLSKKLRRKLQMWLWSQTFCPVLYAWNDLGSRFWPRYVKVGSCFSKRSCSVPEGMVCKPSKSVHLTVLRWRCQRRGGQRCGWIPIQYPIISECKCSC
Regarding B1, the inhibition of BMP-2-induced ALP activity in C2C12 cells; noggin at 30 ng/ml, BMP-2 at 100 ng/ml, no GAG is 14 percent; the inhibition of BMP-2-induced ALP activity in C2C12 cells; noggin at 30 ng/ml, in the presence of HS+ve was determined as 2 percent; the inhibition of BMP-2-induced ALP activity in C2C12 cells; noggin at 30 ng/ml, in the presence of HSpm worked out at 4 percent; the inhibition of BMP-2-induced ALP activity in C2C12 cells; noggin at 100 ng/mL, in the presence of HS-ve amounted to 75 percent. Further, the inhibition of BMP-2-induced ALP activity in C2C12 cells; noggin at 100 ng/ml, BMP-2 at 100 ng/ml, no GAG is 95 percent; the inhibition of BMP-2-induced ALP activity in C2C12 cells; noggin at 100 ng/ml, in the presence of HS+ve was 43 percent; the inhibition of BMP-2-induced ALP activity in C2C12 cells; noggin at 100 ng/ml, in the presence of HSpm came to 62 percent.
